Reference: the supplement of paper PMC10567573

B1: IKZF1 (parent)
chain: HIKLHSGEKPFKCHLCNYACRRRD

Variants of: B1
Assay: protein stability index of a GFP-peptide fusion (GPS, HEK-293T) (PSI 1-6); higher = more stable
Settings: c terminus: a fixed tail appended
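Also: lentivirally expressed fusions sorted by FACS into six bins by GFP to DsRed ratio, PSI derived from sequencing read proportions per bin multiplied by bin number.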

Protein stability index, by site and new letter:
N17: K 1.2 | C 1.3 | P 1.56 | W 1.62 | T 2.12 | V 2.39 | M 1.86 | A 2.67 | D 1.47 | I 2.86 | F 2.79 | G 2.05 | S 1.97 | L 2.07 | R 1.53 | H 1.98 | Q 1.43 | Y 1.52
F11: P 1.67 | S 1.64 | I 1.46 | T 1.85 | E 2.17 | D 2.15 | C 1.83 | H 2.2 | Y 1.52 | R 1.74 | L 2.12 | Q 2.41 | V 1.46 | N 1.77 | M 2.21 | K 2.6 | G 2.06
C16: I 2.35 | F 2.05 | T 2.8 | E 3.02 | D 2.98 | Q 2.12 | W 2.14 | L 2.26 | R 2.81 | V 1.81 | N 2.8 | H 2.29 | M 2.04 | P 2.2 | S 2.96 | K 2.91 | Y 1.88 | G 3.03 | A 2.04
Y18: G 2.84 | S 1.58 | I 1.48 | K 1.99 | H 1.82 | C 2.04 | R 2.15 | N 1.88 | D 2.7 | M 2.17 | T 1.54 | P 1.94 | Q 2.67 | L 2.23 | E 2.02 | F 2.07 | W 1.16 | A 2.04
K12: T 1.68 | I 1.78 | D 1.68 | L 1.82 | E 2.29 | V 2.21 | Q 2.28 | F 2.25 | P 1.78 | R 2.23 | G 2.38 | A 1.77 | N 1.67 | Y 2.13 | S 1.95 | H 1.7 | W 1.59 | C 2.32 | M 2.02
A19: T 1.81 | N 2.27 | G 1.49 | M 1.88 | C 1.64 | L 2 | Y 1.32 | F 2.07 | Q 1.67 | S 1.94 | P 1.71 | D 1.58 | V 1.4 | H 1.85 | K 3.11 | I 2.13 | W 2.52 | R 2.62 | E 2.1
L15: W 2.44 | I 2.44 | M 1.36 | Y 1.63 | K 2.68 | R 2.3 | F 1.89 | T 2.92 | S 2.11 | N 2.27 | C 2.66 | E 2.5 | Q 2.47 | H 2.14 | V 1.78 | P 2.64 | G 2.43 | A 2.28 | D 1.74
C13: W 2.73 | F 2.01 | G 3.04 | P 2.97 | D 3.34 | K 3 | S 2.36 | Q 2.75 | L 1.85 | T 2.91 | H 2.79 | I 2.28 | R 2.26 | Y 1.77 | N 3.53 | M 2.15 | V 2.21 | E 2.58 | A 2.28
H14: L 1.88 | F 2.32 | C 3.78 | P 1.83 | I 1.55 | M 1.54 | S 2.09 | G 1.89 | A 1.5 | V 2.23 | Y 1.45 | W 2.23 | Q 1.83 | R 2.26 | K 2.39 | T 2.42 | N 1.69 | E 1.66 | D 2.82
